Assay results published in IntAct's records for PubMed 16367866.

B1: Translocated intimin receptor Tir (Escherichia coli O127:H6 (strain E2348/69 / EPEC)), B7UM99 (parent)
chain: MPIGNLGNNVNGNHLIPPAPPLPSQTDGAARGGTGHLISSTGALGSRSLFSPLRNSMADSVDSRDIPGLPTNPSRLAAATSETCLLGGFEVLHDKGPLDILNTQIGPSAFRVEVQADGTHAAIGEKNGLEVSVTLSPQEWSSLQSIDTEGKNRFVFTGGRGGSGHPMVTVASDIAEARTKILAKLDPDNHGGRQPKDVDTRSVGVGSASGIDDGVVSETHTSTTNSSVRSDPKFWVSVGAIAAGLAGLAATGIAQALALTPEPDDPTTTDPDQAANAAESATKDQLTQEAFKNPENQKVNIDANGNAIPSGELKDDIVEQIAQQAKEAGEVARQQAVESNAQAQQRYEDQHARRQEELQLSSGIGYGLSSALIVAGGIGAGVTTALHRRNQPAEQTTTTTTHTVVQQQTGGNTPAQGGTDATRAEDASLNRRDSQGSVASTHWSDSSSEVVNPYAEVGGARNSLSAHQPEEHIYDEVAADPGYSVIQNFSGSGPVTGRLIGTPGQGIQSTYALLANSGGLRLGMGGLTSGGESAVSSVNAAPTPGPVRFV
partner: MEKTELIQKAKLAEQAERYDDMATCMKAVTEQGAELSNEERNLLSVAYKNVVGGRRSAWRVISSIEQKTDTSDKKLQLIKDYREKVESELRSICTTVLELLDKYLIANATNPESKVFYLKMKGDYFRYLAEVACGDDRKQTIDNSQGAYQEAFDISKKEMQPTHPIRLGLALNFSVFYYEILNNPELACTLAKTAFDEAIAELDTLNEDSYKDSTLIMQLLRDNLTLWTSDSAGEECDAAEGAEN

Variants of: B1
Conditions: with 1433t_human YWHAQ

Variant | effect of a mutation on the interaction
S434A | with no effect
S465A | with no effect
S51A | with no effect
